# Measured values from the Human Domainome abundance scans (Beltran et al. 2025).
# ± gives the uncertainty stated by the source.
# B1: Chromodomain-helicase-DNA-binding protein 5, residues 411 to 463; numbered along this chain, Q8TDI0 (parent)
# chain: EEDDHMEFCRVCKDGGELLCCDACPSSYHLHCLNPPLPEIPNGEWLCPRCTCP
# Variants of: B1
# Test: abundance fitness (aPCA) (normalised: wild type 0, dead -1); higher = more abundant; growth selection in yeast, the domain comes from the species named
# Conditions: Homo sapiens
row,Variant,abundance fitness
1,K13A,0.015 ± 0.064
2,K13W,-0.299 ± 0.059
3,K13G,-0.008 ± 0.051
4,K13I,-0.644 ± 0.22
5,C24M,-0.781 ± 0.1
6,C24P,-0.791 ± 0.24
7,C24N,-0.904 ± 0.43
8,C24D,-0.703 ± 0.16
9,C24G,-0.723 ± 0.1
10,C24Q,-1.11 ± 0.28
11,C24V,-0.589 ± 0.072
12,H31C,-0.421 ± 0.14
13,H31K,-0.029 ± 0.1
14,H31S,-0.075 ± 0.08
15,H31R,0.05 ± 0.049
16,H31M,-0.088 ± 0.1
17,H31T,-0.16 ± 0.1
18,T51K,0.049 ± 0.089
19,T51N,0.018 ± 0.051
20,T51V,-0.084 ± 0.064
21,T51Q,0.116 ± 0.092
22,T51Y,-0.161 ± 0.097
23,T51P,-0.078 ± 0.089
24,T51H,-0.228 ± 0.13

row,Variant,abundance fitness
1,V11E,0.18 ± 0.076
2,V11I,0.069 ± 0.061
3,V11A,-0.276 ± 0.058
4,V11Y,-0.056 ± 0.076
5,V11F,-0.111 ± 0.1
6,C32F,-0.758 ± 0.21
7,C32E,-0.264 ± 0.12
8,C32L,-0.716 ± 0.097
9,C32Y,-0.846 ± 0.18
10,C32W,-0.967 ± 0.13
11,P35W,-0.404 ± 0.052
12,P35Q,-0.12 ± 0.063
13,P35N,-0.172 ± 0.096
14,C52H,0.189 ± 0.1
15,C52V,0.062 ± 0.055
16,C52G,0.029 ± 0.055
17,G15D,0.098 ± 0.095
18,G15E,-0.224 ± 0.13
19,G15T,0.036 ± 0.062
20,L18G,-0.655 ± 0.13
21,H5V,-0.5 ± 0.041
22,H5D,-0.177 ± 0.076
23,H5W,-0.214 ± 0.043
24,H5E,-0.476 ± 0.069

row,Variant,abundance fitness
1,H5K,0.023 ± 0.042
2,H5G,-0.246 ± 0.043
3,E17W,-0.458 ± 0.052
4,E17T,0.03 ± 0.055
5,E17N,-0.063 ± 0.061
6,E17R,-0.187 ± 0.053
7,E17A,-0.063 ± 0.043
8,E17P,-0.239 ± 0.052
9,E17L,-0.27 ± 0.051
10,C9T,-0.56 ± 0.074
11,C9L,-0.861 ± 0.078
12,C9R,-0.629 ± 0.062
13,C9I,-1.05 ± 0.25
14,C9G,-0.687 ± 0.068
15,C9S,-0.807 ± 0.072
16,C9K,-0.438 ± 0.074
17,C20M,-0.017 ± 0.081
18,C20A,0.071 ± 0.066
19,C20E,-0.049 ± 0.079
20,C20L,0.006 ± 0.047
21,C20Q,0.031 ± 0.047
22,W45M,-0.491 ± 0.088
23,W45L,-0.52 ± 0.047
24,W45T,-0.7 ± 0.082

row,Variant,abundance fitness
1,W45F,-0.593 ± 0.2
2,W45H,-0.512 ± 0.2
3,W45A,-0.45 ± 0.058
4,W45P,-0.472 ± 0.067
5,W45E,-0.523 ± 0.083
6,W45V,-0.579 ± 0.046
7,W45I,-0.667 ± 0.16
8,L37A,0.031 ± 0.043
9,L37V,-0.135 ± 0.079
10,L37F,-0.21 ± 0.12
11,E44A,-0.095 ± 0.048
12,E44Q,0.041 ± 0.053
13,E44P,-0.071 ± 0.063
14,E44L,-0.186 ± 0.058
15,E44V,-0.105 ± 0.04
16,E44G,-0.027 ± 0.045
17,P36L,-0.215 ± 0.055
18,P36N,-0.591 ± 0.32
19,P36A,0.099 ± 0.08
20,P36E,-0.194 ± 0.1
21,P36G,-0.169 ± 0.06
22,L33K,-0.699 ± 0.049
23,L33I,0.252 ± 0.082
24,L33W,-0.594 ± 0.064

row,Variant,abundance fitness
1,L33Y,-0.482 ± 0.12
2,L33P,-0.496 ± 0.11
3,L33Q,-0.484 ± 0.086
4,L33M,-0.235 ± 0.095
5,L33A,-0.171 ± 0.046
6,D22C,-0.046 ± 0.08
7,D22M,0.051 ± 0.066
8,D22R,0.071 ± 0.044
9,D22Y,-0.059 ± 0.044
10,D3Q,0.105 ± 0.047
11,D3G,0.105 ± 0.045
12,D3T,0.205 ± 0.05
13,D3N,0.168 ± 0.069
14,D3Y,0.189 ± 0.065
15,D3S,0.155 ± 0.044
16,D3C,-0.763 ± 0.065
17,D4V,-0.14 ± 0.042
18,D4R,0.048 ± 0.041
19,D4I,0.184 ± 0.063
20,D4L,0.11 ± 0.042
21,D4T,0.216 ± 0.043
22,D4Y,0.252 ± 0.077
23,E2C,-0.398 ± 0.14
24,E2D,-0.565 ± 0.19

row,Variant,abundance fitness
1,E2I,0.392 ± 0.13
2,E2L,-0.038 ± 0.062
3,E2W,-0.314 ± 0.13
4,E2V,-0.125 ± 0.081
5,E2K,-0.157 ± 0.14
6,F8C,-0.242 ± 0.097
7,F8N,0.024 ± 0.11
8,F8W,-0.346 ± 0.083
9,E39A,0.006 ± 0.084
10,E39S,0.091 ± 0.07
11,E39G,-0.135 ± 0.092
12,E39H,0.098 ± 0.17
13,E39K,-0.104 ± 0.12
14,P53A,-0.091 ± 0.14
15,P53L,0.13 ± 0.15
16,P53R,-0.669 ± 0.29
17,M6P,-0.03 ± 0.09
18,M6F,0.084 ± 0.092
19,M6Y,-0.401 ± 0.099
20,M6T,0.136 ± 0.096
21,M6K,0.172 ± 0.08
22,H29F,-0.765 ± 0.27
23,H29R,-0.741 ± 0.062
24,H29Y,-0.652 ± 0.26

row,Variant,abundance fitness
1,L30Y,-0.019 ± 0.08
2,L30S,0.02 ± 0.055
3,L30G,0.002 ± 0.048
4,P25C,0.087 ± 0.061
5,P25K,0.058 ± 0.075
6,P25T,0.044 ± 0.065
7,P25L,-0.157 ± 0.067
8,C21E,-0.873 ± 0.11
9,C21T,-1 ± 0.14
10,C21S,-0.883 ± 0.058
11,C21D,-0.791 ± 0.1
12,C21K,-0.641 ± 0.088
13,C12P,-0.699 ± 0.1
14,C12M,-0.923 ± 0.071
15,C12F,-0.756 ± 0.21
16,C12G,-0.66 ± 0.066
17,C12L,-0.971 ± 0.079
18,L19Q,-0.155 ± 0.12
19,L19I,0.26 ± 0.098
20,L19K,-0.361 ± 0.14
21,L19P,-1.22 ± 0.38
22,L19V,-0.031 ± 0.077
23,L19G,-0.571 ± 0.059
